Substitutions are numbered along the chain they refer to. Names and notes keep the numbering of the source. One block for each binder: values may come before it.
Legend:
Conditions in all cases: both partners purified
[1] = target: T1, GST-Kapβ2 (Karyopherin-β2) (human, UniProt Q92973-2 1-890); assay: pull-down; 4–8 μM GST-importin (or GST) immobilised on 50 μL GSH beads; 4–8 μM MBP-FUS protein or GSP1 added in 100 μL; 20 mM HEPES pH 7.4, 110 mM potassium acetate, 2 mM magnesium acetate, 2 mM DTT, 15% glycerol; 30 min at 25 °C, three washes; Coomassie-stained SDS-PAGE
T1 construct: Karyopherin β2 (Kapβ2, Transportin-1, TNPO1), human; GST-importin eluted with glutathione and immobilised again on GSH beads for pull-downs; also called Transportin-1; TNPO1; source: E. coli BL21 (DE3), purified (GSH Sepharose, anion exchange, SEC)
T1 sequence (looked up): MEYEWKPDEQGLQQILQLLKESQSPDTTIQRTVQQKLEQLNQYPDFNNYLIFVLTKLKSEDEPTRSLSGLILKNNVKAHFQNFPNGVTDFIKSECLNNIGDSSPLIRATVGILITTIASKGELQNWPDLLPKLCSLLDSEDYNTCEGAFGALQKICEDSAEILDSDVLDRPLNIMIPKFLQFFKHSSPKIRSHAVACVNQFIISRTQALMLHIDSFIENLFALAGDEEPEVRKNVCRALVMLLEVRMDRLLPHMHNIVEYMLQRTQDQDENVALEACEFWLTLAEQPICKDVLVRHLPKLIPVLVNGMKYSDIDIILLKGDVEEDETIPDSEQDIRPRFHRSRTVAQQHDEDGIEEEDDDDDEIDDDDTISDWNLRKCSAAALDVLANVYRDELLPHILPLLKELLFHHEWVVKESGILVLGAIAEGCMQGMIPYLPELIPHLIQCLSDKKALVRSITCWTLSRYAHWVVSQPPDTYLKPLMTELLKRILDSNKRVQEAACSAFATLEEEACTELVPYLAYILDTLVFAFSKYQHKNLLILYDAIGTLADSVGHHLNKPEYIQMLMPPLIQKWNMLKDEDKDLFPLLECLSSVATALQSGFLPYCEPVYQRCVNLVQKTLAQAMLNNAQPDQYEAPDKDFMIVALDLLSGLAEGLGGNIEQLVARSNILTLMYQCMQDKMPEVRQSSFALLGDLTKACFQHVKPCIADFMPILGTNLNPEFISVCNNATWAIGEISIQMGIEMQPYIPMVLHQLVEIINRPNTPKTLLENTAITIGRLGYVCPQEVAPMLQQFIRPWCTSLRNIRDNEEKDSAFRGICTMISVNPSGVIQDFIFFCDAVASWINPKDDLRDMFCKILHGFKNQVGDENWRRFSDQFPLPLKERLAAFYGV

[2] = target: T2, Kapβ2 (untagged, GST removed) (human, UniProt Q92973-2 1-890); assay: ITC; 10 μM Kapβ2 in the cell, 100 μM or 200 μM MBP-FUS protein in the syringe; 20 mM Tris–HCl, 150 mM NaCl, 10% glycerol, 2 mM BME; 20 °C; single class of binding sites, global analysis of duplicates or triplicates
T2 construct: Karyopherin β2 (Kapβ2, Transportin-1, TNPO1), human; used for ITC and turbidity assays; also called Karyopherin-β2; Transportin-1; source: E. coli BL21 (DE3), purified (GSH column, Tev cleavage, anion exchange, SEC Superdex200)
T2 sequence (looked up): T1 sequence (looked up)

[3] = target: T2, Kapβ2 (untagged, GST removed); assay: ITC; reversed set-up: 10 μM MBP-FUS protein in the cell, 100 μM or 200 μM Kapβ2 in the syringe; 20 mM Tris–HCl, 150 mM NaCl, 10% glycerol, 2 mM BME; 20 °C; single class of binding sites; 'apparent' KD for FUS(1–370)

B2: MBP-FUS PY-NLS (residues 475–526) (domain or fragment, UniProt P35637 475-526, looked up)
chain: GRGGYDRGGYRGRGGDRGGFRGGRGGGDRGGFGPGKMDSRGEHRQDRRERPY
notes: FUS residues 475–526 (PY-NLS); also called FUS(475–526); WT FUS^PY-NLS; source: E. coli BL21 (DE3), purified (amylose resin, SEC); not shown: MBP, N-terminal, kept
Kd [2]: 31 nM

B3: MBP-FUS PY-NLS (P525L) (residues 475–526) (domain or fragment, UniProt P35637 475-526, looked up)
chain: B2 chain with P51L
notes: FUS residues 475–526 with the ALS mutation P525L; also called FUS(P525L)^PY-NLS; source: E. coli BL21 (DE3), purified (amylose resin, SEC); not shown: MBP, N-terminal, kept
Kd [2]: 180 nM

B4: MBP-FUS(277–500) (domain or fragment, UniProt P35637 277-500, looked up)
chain: SEQDNSDNNTIFVQGLGENVTIESVADYFKQIGIIKTNKKTGQPMINLYTDRETGKLKGEATVSFDDPPSAKAAIDWFDGKEFSGNPIKVSFATRRADFNRGGGNGRGGRGRGGPMGRGGYGGGGSGGGGRGGFPSGGGGGGGQQRAGDWKCPNPTCENMNFSWRNECNQCKAPKPDGPGGGPGGSHMGGNYGDDRRGGRGGYDRGGYRGRGGDRGGFRGGRGG
notes: source: E. coli BL21 (DE3), purified (amylose resin, SEC); not shown: MBP, N-terminal, kept
binding result [1]: binds

B5: MBP-FUS(1–370) (domain or fragment, UniProt P35637 1-370, looked up)
chain: MASNDYTQQATQSYGAYPTQPGQGYSQQSSQPYGQQSYSGYSQSTDTSGYGQSSYSSYGQSQNTGYGTQSTPQGYGSTGGYGSSQSSQSSYGQQSSYPGYGQQPAPSSTSGSYGSSSQSSSYGQPQSGSYSQQPSYGGQQQSYGQQQSYNPPQGYGQQNQYNSSSGGGGGGGGGGNYGQDQSSMSSGGGSGGGYGNQDQSGGGGSGGYGQQDRGGRGRGGSGGGGGGGGGGYNRSSGGYEPRGRGGGRGGRGGMGGSDRGGFNKFGGPRDQGSRHDSEQDNSDNNTIFVQGLGENVTIESVADYFKQIGIIKTNKKTGQPMINLYTDRETGKLKGEATVSFDDPPSAKAAIDWFDGKEFSGNPIKVSFAT
notes: FUS residues 1–370 (missing RGG2-ZnF-RGG3-PYNLS); also called FUS LC-RGG1; source: E. coli BL21 (DE3), purified (amylose resin, SEC); not shown: MBP, N-terminal, kept
Kd [3]: 35000 nM

B6: MBP-FUS(1–452) (domain or fragment, UniProt P35637 1-452, looked up)
chain: MASNDYTQQATQSYGAYPTQPGQGYSQQSSQPYGQQSYSGYSQSTDTSGYGQSSYSSYGQSQNTGYGTQSTPQGYGSTGGYGSSQSSQSSYGQQSSYPGYGQQPAPSSTSGSYGSSSQSSSYGQPQSGSYSQQPSYGGQQQSYGQQQSYNPPQGYGQQNQYNSSSGGGGGGGGGGNYGQDQSSMSSGGGSGGGYGNQDQSGGGGSGGYGQQDRGGRGRGGSGGGGGGGGGGYNRSSGGYEPRGRGGGRGGRGGMGGSDRGGFNKFGGPRDQGSRHDSEQDNSDNNTIFVQGLGENVTIESVADYFKQIGIIKTNKKTGQPMINLYTDRETGKLKGEATVSFDDPPSAKAAIDWFDGKEFSGNPIKVSFATRRADFNRGGGNGRGGRGRGGPMGRGGYGGGGSGGGGRGGFPSGGGGGGGQQRAGDWKCPNPTCENMNFSWRNECNQCKAPKP
notes: as for B4
binding result [1]: binds

B7: MBP-FUS(371–500) (RGG2-ZnF-RGG3) (domain or fragment, UniProt P35637 371-500, looked up)
chain: RRADFNRGGGNGRGGRGRGGPMGRGGYGGGGSGGGGRGGFPSGGGGGGGQQRAGDWKCPNPTCENMNFSWRNECNQCKAPKPDGPGGGPGGSHMGGNYGDDRRGGRGGYDRGGYRGRGGDRGGFRGGRGG
notes: also called FUS RGG2-ZnF-RGG3; source: E. coli BL21 (DE3), purified (amylose resin, SEC); not shown: MBP, N-terminal, kept
Kd [2]: 170 nM

B10: MBP-FUS(371–452) (RGG2-ZnF) (domain or fragment, UniProt P35637 371-452, looked up)
chain: RRADFNRGGGNGRGGRGRGGPMGRGGYGGGGSGGGGRGGFPSGGGGGGGQQRAGDWKCPNPTCENMNFSWRNECNQCKAPKP
notes: also called FUS RGG2-ZnF; source: E. coli BL21 (DE3), purified (amylose resin, SEC); not shown: MBP, N-terminal, kept
Kd [2]: 4000 nM

More lines, now with the values ahead:

binding result [1]: binds
B1: MBP-FUS (full length) (natural protein, UniProt P35637 1-526, looked up)
chain: MASNDYTQQATQSYGAYPTQPGQGYSQQSSQPYGQQSYSGYSQSTDTSGYGQSSYSSYGQSQNTGYGTQSTPQGYGSTGGYGSSQSSQSSYGQQSSYPGYGQQPAPSSTSGSYGSSSQSSSYGQPQSGSYSQQPSYGGQQQSYGQQQSYNPPQGYGQQNQYNSSSGGGGGGGGGGNYGQDQSSMSSGGGSGGGYGNQDQSGGGGSGGYGQQDRGGRGRGGSGGGGGGGGGGYNRSSGGYEPRGRGGGRGGRGGMGGSDRGGFNKFGGPRDQGSRHDSEQDNSDNNTIFVQGLGENVTIESVADYFKQIGIIKTNKKTGQPMINLYTDRETGKLKGEATVSFDDPPSAKAAIDWFDGKEFSGNPIKVSFATRRADFNRGGGNGRGGRGRGGPMGRGGYGGGGSGGGGRGGFPSGGGGGGGQQRAGDWKCPNPTCENMNFSWRNECNQCKAPKPDGPGGGPGGSHMGGNYGDDRRGGRGGYDRGGYRGRGGDRGGFRGGRGGGDRGGFGPGKMDSRGEHRQDRRERPY
notes: Fused in Sarcoma (FUS), full length; in the turbidity assays MBP is cut off by Tev during the assay; also called FL-FUS; MBP-FL FUS; source: E. coli BL21 (DE3), purified (amylose resin, SEC); not shown: MBP, N-terminal, kept

Kd [3]: 160 nM
B8: MBP-FUS(1–500) (domain or fragment, UniProt P35637 1-500, looked up)
chain: MASNDYTQQATQSYGAYPTQPGQGYSQQSSQPYGQQSYSGYSQSTDTSGYGQSSYSSYGQSQNTGYGTQSTPQGYGSTGGYGSSQSSQSSYGQQSSYPGYGQQPAPSSTSGSYGSSSQSSSYGQPQSGSYSQQPSYGGQQQSYGQQQSYNPPQGYGQQNQYNSSSGGGGGGGGGGNYGQDQSSMSSGGGSGGGYGNQDQSGGGGSGGYGQQDRGGRGRGGSGGGGGGGGGGYNRSSGGYEPRGRGGGRGGRGGMGGSDRGGFNKFGGPRDQGSRHDSEQDNSDNNTIFVQGLGENVTIESVADYFKQIGIIKTNKKTGQPMINLYTDRETGKLKGEATVSFDDPPSAKAAIDWFDGKEFSGNPIKVSFATRRADFNRGGGNGRGGRGRGGPMGRGGYGGGGSGGGGRGGFPSGGGGGGGQQRAGDWKCPNPTCENMNFSWRNECNQCKAPKPDGPGGGPGGSHMGGNYGDDRRGGRGGYDRGGYRGRGGDRGGFRGGRGG
notes: FUS residues 1–500; in the turbidity assays MBP is cut off by Tev during the assay; source: E. coli BL21 (DE3), purified (amylose resin, SEC); not shown: MBP, N-terminal, kept

binding result [1]: binds
B9: MBP-FUS(1–430) (domain or fragment, UniProt P35637 1-430, looked up)
chain: MASNDYTQQATQSYGAYPTQPGQGYSQQSSQPYGQQSYSGYSQSTDTSGYGQSSYSSYGQSQNTGYGTQSTPQGYGSTGGYGSSQSSQSSYGQQSSYPGYGQQPAPSSTSGSYGSSSQSSSYGQPQSGSYSQQPSYGGQQQSYGQQQSYNPPQGYGQQNQYNSSSGGGGGGGGGGNYGQDQSSMSSGGGSGGGYGNQDQSGGGGSGGYGQQDRGGRGRGGSGGGGGGGGGGYNRSSGGYEPRGRGGGRGGRGGMGGSDRGGFNKFGGPRDQGSRHDSEQDNSDNNTIFVQGLGENVTIESVADYFKQIGIIKTNKKTGQPMINLYTDRETGKLKGEATVSFDDPPSAKAAIDWFDGKEFSGNPIKVSFATRRADFNRGGGNGRGGRGRGGPMGRGGYGGGGSGGGGRGGFPSGGGGGGGQQRAGDWKCPN
notes: FUS residues 1–430 (missing ZnF-RGG3-PYNLS); source: E. coli BL21 (DE3), purified (amylose resin, SEC); not shown: MBP, N-terminal, kept

binding result [1]: binds
B11: MBP-FUS(121–500) (domain or fragment, UniProt P35637 121-500, looked up)
chain: SYGQPQSGSYSQQPSYGGQQQSYGQQQSYNPPQGYGQQNQYNSSSGGGGGGGGGGNYGQDQSSMSSGGGSGGGYGNQDQSGGGGSGGYGQQDRGGRGRGGSGGGGGGGGGGYNRSSGGYEPRGRGGGRGGRGGMGGSDRGGFNKFGGPRDQGSRHDSEQDNSDNNTIFVQGLGENVTIESVADYFKQIGIIKTNKKTGQPMINLYTDRETGKLKGEATVSFDDPPSAKAAIDWFDGKEFSGNPIKVSFATRRADFNRGGGNGRGGRGRGGPMGRGGYGGGGSGGGGRGGFPSGGGGGGGQQRAGDWKCPNPTCENMNFSWRNECNQCKAPKPDGPGGGPGGSHMGGNYGDDRRGGRGGYDRGGYRGRGGDRGGFRGGRGG
notes: as for B4
